Data on three substances can be found in patent US9555344.

Test [1] deals with Concanavalin A (UniProt P02866). The experiment in a line: Con A Sepharose affinity chromatography (Con A assay); bound albumin as percent of load.
The target is the same in test [2]. Briefly: Con A Sepharose affinity chromatography, 100 mg rHA loaded; albumin monomer in eluate by GP-HPLC as percent of load; sample final product.
For test [3] the target is unchanged. Briefly: Con A Sepharose affinity chromatography, 100 mg rHA loaded; albumin monomer in eluate by GP-HPLC as percent of load; sample PBA flow through & washings.
The target is the same in test [4]. The experiment in a line: Con A Sepharose affinity chromatography, 100 mg rHA loaded; albumin monomer in eluate by GP-HPLC as percent of load; sample SP-FF2 flow through & washings.

With “rHA purified from the Pichia pastoris culture medium in accordance with the process of Example 1 (from UniProt P02768 25-609)”, in test [1], the content of Con A binding material is 0.22 % (w/w).

Regarding “rHA used to spike the Pichia culture medium (from UniProt P02768 25-609)”, the content of Con A binding material in test [1] was 0.57 % (w/w).

Turning to “recombinant human albumin (rHA) from a non-mutant (non-pmt1) Saccharomyces cerevisiae strain, purified by the process of Example 1 (from UniProt P02768 25-609)”, the values for the ConA-binding rHA (% of load) in test [2], in test [3] and in test [4] were 0.28 % of load, 0.55 % of load and 0.32 % of load, respectively.
